According to the RNAGym collection of RNA variant scans (doi:10.1073/pnas.2313332121):

B1: TPR t1 (parent)
chain: GACCAAUCUGCCCUCAGAGCUCGAGAACAUCUUCGGAUGCAGAGGAGGCAGGCUUCGGUGGCGCGAUAGCGCCAACGUCCUCAACCUCCAAUGCAUCCCACCACAUGAUGAUGCCUGAAGAGCCUUGGUUUUUUG

Variants of: B1
Test: polymerase ribozyme fitness, log enrichment relative to wild type (log ratio); higher = more active; in vitro selection for triplet polymerase activity
How it was run: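 Both subunits of a heterodimeric triplet polymerase ribozyme were given their own mutant library, built by PCR and transcribed. Each library was annealed with a biotinylated primer, the partner subunit and triplets, incubated frozen at −7 °C, and its extended constructs gel-excised, captured on streptavidin beads and amplified by RT-PCR, all in one round done in triplicate. Fitness is the logarithm of genotype enrichment relative to wild-type enrichment, with replicates averaged by inverse-variance weighting. That logarithm is base 2, and Illumina-sequenced genotypes needed ≥10 input reads and ≥1 read per output.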

Variant	polymerase ribozyme fitness (log ratio)
G45U U54C U132C	-1.01
U9C C64A U67A C73U C85U G120C	-6.47
U21C G45A U59A G61A	-1.1
G10U C40G G48U C102U	-3.36
G117A U125G	-1.64
G17U C40G C99G A111U	-6.82
G17U A43U	-3.34
C11A C62U G117A G122A	-0.74
C85A G127U	-4.56
C8G A37G G71A C123A U133G	1.08
U33G C104A A121C G135A	-5.07
C8G C62U	0.179
C8G C123U	1.6
C70G C82A	-2.48
C8A C86G G113A	-1.25
A27U A84C G120U U125C	-1.52
A18U G47U	-3.96
C13U A37G A118G G127U G128U U131G	-0.0788
U9G C85U C97A C115G	-4.92
C49U C80U C114U G122U	-5.64
G42C G69U A91U C102U C123U	-0.432
G10U C82A U92G U116C A119U	-5.07
C11G C12A G36C C72U C73U	-1.07
C12U G113U	-1.65

Variant	polymerase ribozyme fitness (log ratio)
C8U U9G C12A G58A	0.43
C40G G61C	-2.49
G60A U109A U133G	-5.4
U32C G71U G110A C123U U131G	-4.9
A6G U21C C114A	-0.942
A2C C11A G60A G69U C89G G122A	-3.67
U87C U129C	-0.143
C20U C62U C94U	-2.47
G52U C104A	-2.28
A29U G52A	-1.8
C12A A37C C40U G47A C73A	-4.88
A84G A95U C104A A121C	-2.33
A5G C56U	-0.367
U78A G117U	-2.81
C3G C49G C72U A91C G128A U130G	-3.78
G45U C94A	-1.66
G63A A68G	-3.95
G17A C34U C98U C124A	-5.98
A16C U132A	-2.47
A2U G47U G61U	-4.48
A27C G110A	-4.22
U55A U81A G113A	-2.4
G61U A121C	1.94
A26U C86A G110A	-5.7

Variant	polymerase ribozyme fitness (log ratio)
G77A U92C G117C	-5.8
U81C A83G	-1.15
C12U A27U C40A U78G U109A C123U U130C	-3.99
C12A A37C G71A A108G U112G	-7.07
A29U U81A C82A U87G U112A	-1.91
A6G A41C C56A G69C G93U G117C	-6.65
U14A C15U C88U U96C G120U	-1.94
C56G U59C	-1.57
C72A U133A	0.191
U14A A121U	1.98
G35C G61C C98G	-5.36
G51A G57U U81C C101U	-2.52
G10U C15G G120A	-1.69
A95U C114G	-2.97
C8G G19C A75U C89G	-2.29
G44U C62A A84U A118G	-4.34
C114G G117A G135U	-6.72
G45U C49U	-1.85
G51U G71A	-5.06
C88G C115G	-3.51
G39U C56U	0.0586
A46G G71U	-1.19
C20A C79U C97U C124A G127C	-2.63
G63A G107U	-5.22

Variant	polymerase ribozyme fitness (log ratio)
C8U G39A C94G C99U	-4.71
C49A C88A G127U	-2.42
A18U G45A	-2.78
A6U C76G C98U	-1.31
C82A C89A A105U U112G	-4.43
A29G G51U C62U C82G	-4.8
C8G U30A	-5.66
A111C C114A	-2.98
C56G C115U	-1.4
A2U A6U G120A	0.00399
C13U G39A A103U C123U	-4.74
G45U C56U C70U A75U	-2.3
A29G A90C	-2.34
A66C C85U C86U C97U	-3.15
C56A U116C	-0.712
A41U C80A	-5.17
C82A U129C	-0.227
C22U C73A	-3.74
C11G G51A C53G C124U U131G	-1.71
A6C U21G G39U C72G C85A C124U G128A U133A	-3.4
C40U C101A U112C	0.157
C28U C40A G71U U112C U126A	-3.58
C49A A50C C86U	-0.434
G47C C94U	-1.71

Variant	polymerase ribozyme fitness (log ratio)
C34U C114G	-6.1
A27U C76A C79A	-4.71
U32A C114G	-4.17
C72A U81G G120U	-0.653
C22G C62G C104U G120A	-4.19
G10A G69U U78C A95G C115U	0.452
G48C A95G U106A	-0.768
C15A C40A C70A C97U G120U	-5.14
C3A G17U	-4.27
U9G C88U	-0.0494
U81C G117A A119U	-3.73
C80A A118G	-3.23
A83C G113A	-1.32
C12A G122U C124A	1.6
A18U G63C C64U C97G G117A	-6.33
G61C G127A U129A	-2.95
C79U U96G	-0.798
C53U U78C C89U A95G C101G C114U U125A G128A	-5.82
G58C C70A G77C G117A	-7.23
G47C C114U	-3.1
U7A C79G	-1.03
A37U G71A A84C C85U U96A	-0.538
C13A C15A G47A C123U G127C	-3.95
G35U C49A C64U	-6.12

Variant	polymerase ribozyme fitness (log ratio)
U78A U133A	-0.443
C4U G48C G69C C101G	-4.61
G47A U87A U96A	-2.62
G52C C101A	-2.34
U59C U87A	-0.642
G48A U54G G71U C85U	-4.47
A46U C73G A74G U96A	-4.63
U38G C56G G57C G77U	-1.18
A6C C13G G69A	-3.82
C12A G77U G110C U130C	-3.57
C4A C40U C114U	-4.58
C72U C76U G122A	-1.21
C114G C123U	-4.31
C80U G107A	-6.42
A18C G47U	-4.12
C8U C22G G39C	-4.04
C11A G47A	-3.21
C89G C115G G128A	-6.15
G23A C115U	-3.88
G71U U78C	-0.468
G10U C20A G42A G93U C115U	-3.5
C70A C123G	-0.534
A18U C40A	-3.76
C73A U131G	-0.242

Variant	polymerase ribozyme fitness (log ratio)
A108G U125G	-2.24
C73A C86A	-0.668
U14G G35A A46G U96A C114U	-5.86
U54G A121G	1.62
C56A A84U C94A C114A	-3.7
A83C G107C	-2.05
C3G G48C	-2.83
C22G A74C	-3.02
G61A C73U U78A C114A	-2.49
C11G U92G	-2.49
G10A A37C A84C A95G	-0.834
A24G G52A A91G	-3.17
G39A G61A U78C	-0.505
C72G C86U A111U C115A	-4.83
A46C U112A	0.587
C12G A46G C53G A95G A119G	0.414
A50U G52U U87G	-2.24
G42U G45U C88G G110A	-3.96
G120C G127A U134C	-2.55
G107A U112A	-5.07
A27G G60A	-1.17
U9C A46U C53U A84C C88U	-1.01
A18C G48U C56U A84G	-4.19
